Legend:
Assay type in all cases: cell-based
human whole blood = experiment: Whole blood transfection of immune cells with Fab targeted mRNA LNPs; settings: Lipid 8 LNP, 2.5 μg/mL mCherry mRNA, 24 hours
Method: Venous blood from healthy volunteers was anti-coagulated in heparin tubes (BD Biosciences #367526) and seeded at 50 μL in a 96-well round-bottom plate. Transfection of whole blood was carried out simply by adding nanoparticles containing 5 μg/mL mRNA to the cells and co-culturing at 37° C. until the time of analysis. To assess transfection efficiency, cells were analyzed 24-hours post-transfection by flow cytometry. LNPs used (with and without post-inserted targets) at 2.5 μg/mL:RDM073.23. Cells obtained from human blood were analyzed by flow cytometry. Prior to the analysis of whole blood transfection efficiency, red blood cells were lysed twice with VersaLyse Lysing Solution (Beckman Coulter #A09777) for 10 minutes at room temperature. […]
Compensation for each fluorochrome was performed in the multicolor flow panels using positive and negative compensation beads. Fluorescence minus one (FMO) samples and unstained controls were included to determine the level of background fluorescence and to set the gates for the negative cell populations versus the positive cell populations.
All samples were acquired on a BD LSRFortessa X-20 (BD Biosciences) running […] software (Becton Dickinson). All data collected were analyzed using FlowJo 10.7.1 software and GraphPad Prism version 9.0. […]

primary human T cells = experiment: LNP transfection of co-cultured human T cells and NK cells: T cells; settings: Lipid 8 LNP, 2.5 ug/mL mRNA, 24 hours
Method: Primary human T cells were purified using magnetic-based CD3 negative selection. 20 million purified T cells were activated using anti-CD3/anti-CD28 coated beads for 48 hours in media containing 100 IU/mL IL-2. Following activation, activation beads were removed, and T cells were expanded for an additional 48 hours in media containing 100 IU/mL IL-2. After the expansion period, T cells were concentrated to 1 million cells/mL in preparation for co-transfection with primary human NK cells.
LNPs were prepared using the mixing process described in Example 6, the buffer exchange process described in Example 25. […]
(§1) 24 hours after LNP transfection, cell culture media was aspirated from T cell and NK cell co-cultures after centrifugation. […] Following acquisition by flow cytometry, T cells and NK cells were analyzed independently using FlowJo (flow cytometry analysis software). In either CD3+ cells (T cells) or CD56+ cells (NK cells), the frequency of GFP positive events relative to GFP negative events was calculated (FIG. 64A). Additionally, the overall fluorescence of GFP was quantified by assessment of mean fluorescence intensity (MFI, FIG. 64B). […] Together, these metrics enabled quantification of LNP transfection efficiency of all targeted LNPs tested in primary human T cell and NK cell co-cultures.

primary human NK cells = experiment: LNP transfection of co-cultured human T cells and NK cells: NK cells; settings: Lipid 8 LNP, 2.5 ug/mL mRNA, 24 hours
Method: CD3-depleted PBMCs were purified using magnetic-based CD3 positive selection and retaining of the negative fraction. 20 million CD3 depleted PBMCs were added to 1 well of a 6 well GREX plate in media containing 10 ng/mL IL-15 for 7 days. On day 7, each well was split in 2 and cells were cultured further in media containing 10 ng/mL IL-15 for an additional 7 days. On day 14, NK cells were concentrated to 1 million cells/mL in preparation for co-transfection with primary human T cells.
LNPs were prepared using the mixing process described in Example 6, the buffer exchange process described in Example 25. The LNPs were formulated using eGFP encoding mRNA (TriLink Biotechnologies, California, US), Lipid 8 as the ionizable lipid, and labeled with 0.01 mol % DiIC18(5)-DS (Invitrogen, Massachusetts, US). Fab-lipid conjugates generated from methods described in Example 4 while generation of Nb-conjugated differed in using 1:1:4 Nb:DSPE-SKPEG-maileimide:DSPE-2KPEG-OCH3 and a 50 kD UF membrane (Millipore Corp, Billerica, Mass. USA) for separation of Nb-conjugate from free Nb. Using methods similar to Example 12, conjugated Fabs and conjugated Nb were post-inserted at various densities (Table 41) into LNPs containing Lipid 8 and GFP mRNA with DiI dye. […]. […]
as §1

B1: mutOKT8: non-functional mutated OKT8 Fab, SEQ ID NO: 22 and 23 (antibody)
heavy: QVQLVQSGAEDKKPGASVKVSCKASGFNIKDTYIHWVRQAPGQGLEWMGRIDPANDNTLYASKFQGRVTITADTSSNTAYMELSSLRSEDTAVYYCGRGAGAYVFDHWGQGTTVTVSSASTKGPSVFPLAPSSKSTSGGTAALGCLVKDYFPEPVTVSWNSGALTSGVHTFPAVLQSSGLYSLSSVVTVPSSSLGTQTYICNVNHKPSNTKVDKKVEPKSSDKTHTC
light: DIVMTQSPSSLSASVGDRVTITCRTSRSISAALAWYQEKPGKAPKLLIYSGSTLQSGVPSRFSGSGSGTDFTLTISSLQPEDFATYYCQQHNENPLTFGQGTKVEIKRTVAAPSVFIFPPSDEQLKSGTASVVCLLNNFYPREAKVQWKVDNALQSGNSQESVTEQDSKDSTYSLSSTLTLSKADYEKHKVYACEVTHQGLSSPVTKSFNRGES
% mCherry+ cells (transfection) in whole blood, in words (human whole blood): did not exhibit transfection of any of the immune cell types | transfection of T cells in T/NK co-culture (% GFP, GFP MFI, DiI), in words (primary human T cells): high % DiI and % GFP | transfection of NK cells in T/NK co-culture (% GFP, GFP MFI, DiI), in words (primary human NK cells): high % DiI and % GFP

— patent US20220218614A1, “IONIZABLE CATIONIC LIPIDS AND LIPID NANOPARTICLES, AND METHODS OF SYNTHESIS AND USE THEREOF” (Tidal Therapeutics, Inc., priority 2020, published 2022)
